B1: BB0238 (purified recombinant, wild type) (natural protein)
chain: QGSSSYIDKQKELAIFYYEVGQRYINVGKIKKGKLFQAKALKIYPDLKKGFDIKLAVKELDARIKDDNPKVVMLEDIKLEEIPGIVHEKIEINDFTNAPKIEYIAQRERSKNQDKIIKFQFGKFARALISRNFDLFDSVIADKVNVMGQFESKNDFISTLSSASSKADADELEYLSVDDYYDLKSLKISKSNDTSFAVNVNAKKNDVTKNFPFWKERQTLIFTTEDDNNWFLSSIN
notes: BB0238 of Borrelia burgdorferi; monomer-dimer mixture in solution; also called BB0238 WT; intact BB0238
B2: BB0323 (residues 22–242) (domain or fragment)
chain: KTPPESRESKNAKIAQPDNKNFQLRDIKDIKNELIRERGHLFYSKEFNEAERLEEAMKQSFSKKKAIEGNEIALKVLERYKTIIRETREKKEKTNYLKENIEKYLNDAEANEAYIWIPLEIDEVNNLYFEATRKYKNYDLDNALDMYSKAFNRAQQAAKNAKEAKALKETDERMYKQLKALEAASNLPIYSNNKLIKPSPWNGRAFIKERNSHLNLLNTNK
notes: BB0323 of Borrelia burgdorferi, residues 22-242; also called BB0323 N2; BB0323^22-242

How the values were obtained:
BB0323 (residues 22–242) = target: B2; assay: SEC; analytical SEC of ~1:1 mixtures: 10 uM BB0238-BB0323 on Superdex 200; ~9 uM BB0238^∆IM with 8 uM BB0323 22-242 on Superdex 75; 50 mM Tris-HCl pH 8.0, 0.15 M NaCl, 0.5 mM EDTA, 4 °C; conditions: both partners purified
[1] = target: the molecule itself; assay: SEC; analytical SEC of single proteins on Superdex 75 (10/300), 50 mM Tris-HCl pH 8.0, 0.15 M NaCl, 0.5 mM EDTA, 4 °C; BB0238 9-44 uM, BB0238^∆IM 10-40 uM, BB0323 (22-242) 8 uM; monomer-dimer

Row | Binder | stoichiometry N (BB0323 (residues 22–242)) | stoichiometry N [1]
1 | B1 | 1 | 2
2 | B2 |  | 2
